We go through two molecules from patent WO2018039626A1 (dated 2018).

In the test the target is T1, recombinant CD16A ectodomain (human, UniProt P08637 17-208).
T1 construct: extracellular domain
The test is described as follows: ELISA, CD16A ectodomain coated at 50 ng/well, sdA detected with anti-Flag-HRP. On the technique in general: ELISA stands for enzyme-linked immunosorbent assay.

T1 sequence (P08637 17-208): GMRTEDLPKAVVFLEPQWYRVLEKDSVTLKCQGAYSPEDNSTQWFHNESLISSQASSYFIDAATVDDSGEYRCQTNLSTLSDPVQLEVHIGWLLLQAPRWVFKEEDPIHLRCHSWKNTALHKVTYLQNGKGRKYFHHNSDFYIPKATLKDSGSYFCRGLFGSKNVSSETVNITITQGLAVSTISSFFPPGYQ

B1: sdA2 (human single domain antibody targeting CD16A) (VHH)
VHH: EVQLVESGGGLVQPGGSLRLSCAASGFTFSSYGMSWVRQAPGKGLEWIGEVNHSGGSTNYNPSLKGSFVISRDNSKNTLYLQMNSLAEDTAVYYCARVGSFDFWGQGTLVTVSS
notes: Human VH single domain; His and Flag tags are implied (Ni-NTA, anti-Flag-HRP); also called E11; El 1
Broadly, the EC50 is the concentration giving half of the maximal effect. B1: the half-maximal effective concentration (EC50) amounted to 0.3 nM.

B2: sdA1 (human single domain antibody targeting CD16A) (VHH)
VHH: EVQLVESGGGLVQPGGSLRLSCAASGFTFSNYGMSWVRQAPGKGLEWIGSIYYSGGSTNYNPSLKGSLVISRDNSKNTLYLQMNSLAEDTATYYCARESIDYWGQGTLVTVSS
notes: Human VH single domain (VH3-23 scaffold), not camelid; Purified by Ni-NTA and detected with anti-Flag-HRP, so His and Flag tags were present; also called sdAl; D6
Regarding B2, the EC50 is 0.1 nM.
